Measurements as given in publication PMC9881579.

B1: LHD206B (designed binder)
chain: GRQEKVLKSIEETVRKMGVTMETHRSGNEVKVVIKGLHKSQQEQLLKDVLKTANKQGVNVHISFRGDTVTIRVRE
modifications: not checked
B2: LHD206B, split luciferase construct (designed binder)
chain: B1 chain
modifications: here or on the partner: Strep-tag, sfGFP, GS-linker and split luciferase fragment left out; protomer taken from the unfused monovalent entry / Strep-tag, sfGFP, GS-linker and split luciferase fragment left out; protomer take

Tests used:
LHD206A [1] = assay: BLI; biotinylated protomer on streptavidin biosensors, designed partner in solution; 25 °C; 10 mM HEPES pH 7.4, 150 mM NaCl, 3 mM EDTA, 0.05% Surfactant P20, 1 mg/ml BSA; global kinetic fit, 1:1 model
LHD206A [2] = assay: BLI; biotinylated protomer on streptavidin biosensors, designed partner in solution; 25 °C; 10 mM HEPES pH 7.4, 150 mM NaCl, 3 mM EDTA, 0.05% Surfactant P20, 1 mg/ml BSA; steady-state fit, 1:1 model
[3] = biological target: LHD206A, split luciferase construct; assay: split reporter (BiFC, NanoBiT); smBiT:lgBiT equilibrium binding in E. coli lysate; one component at 1 nM, the other titrated; overnight at room temperature; 20 mM sodium phosphate, 100 mM NaCl, pH 7.4, 0.05% Tween 20

| Binder | Kd (LHD206A [1]) | koff (LHD206A [1]) | kon (LHD206A [1]) | Kd (LHD206A [2]) | Kd [3] |
| --- | --- | --- | --- | --- | --- |
| B1 | 2.8 nM | 0.00075 s⁻¹ | 270000 M⁻¹ s⁻¹ | 8.4 nM |  |
| B2 |  |  |  |  | 11 nM |
